Results on 1 molecule are retold here after patent US9499823B2, “Constructs expressing chimeric receptors and use thereof for the controlled activation of defence response to pathogens in plants” (priority 2009, dated 2016).

Entries after “also recorded” stand apart in the source; their conditions may differ.

Assay [1] has as its system ethylene biosynthesis in tobacco leaves. The experiment in a line: Induction of ethylene biosynthesis in agroinfiltrated tobacco leaf explants. In kind it is cell-based, Nicotiana tabacum. The settings on record: elfl8 10 μM, 2 h. The procedure:
F) Induction of ethylene biosynthesis in agroinfiltrated tobacco leaves expressing the fluorescent EFR, FLS2, TMC, eJMC and eJMC^Y859A. NC: negative control, represented by agroinfiltrated leaf tissues expressing fluorescent EFR or FLS2 and elicited with flg22 or elfl8, respectively. Results are averages±standard error (n=3).
Excised infiltrated leaf sectors were stimulated for 2 h with water or the elicitor ([…] and 100 μg/ml for OGs). Values are means±s.e.m. (N=3).
E) Induction of ethylene biosynthesis in agroinfiltrated tobacco leaves expressing EFR, WAK1, WEG and EWAK. Each construct was stimulated for 2 h with elfl8 (10 μM) or OGs (100 μg/mL). NC: negative control, represented by agroinfiltrated leaf tissue expressing EFR or FLS2 when OGs or elfl8, respectively, were used for elicitation. Error bars indicate the standard error of three independent replicates.
(A) Induction of ethylene biosynthesis in agroinfiltrated tobacco explants expressing EFR, WAK1, WEG and EWAK. […] Agroinfiltrated leaf tissues expressing EFR or WEG and elicited with OGs or elfl8 respectively, represented our negative control. Values are means±s.e.m. (N=3). (B) Elicitor-induced gene expression in untransformed Col-0 and Col-0 efr plants, and in transgenic Arabidopsis Col-0 efr plants stably expressing WEG. Accumulation of At3g22270 and At4g37640 transcripts was analysed by semi-quantitative PCR, using the UBQ5 gene for normalization. Adult leaves were syringe-infiltrated with water, OGs (25 μg/ml) or elfl8 (10 μM) for 3 h. The experiment was repeated three times with similar results. The same experiment was performed in a second independent transgenic line expressing WEG with similar results.
Approximately 150 mg of tobacco agroinfiltrated leaf were cut in small slices and extensively washed with sterile distilled water. The explants were placed in sealed 10 mL flasks containing 2 mL of sterile water alone or supplemented with 100 mg L^−1 OGs, or 1 μM flg22 or 10 μM elfl8. 450 μl headspace samples were withdrawn from the vial after 2 h treatment and analyzed by gas chromatography-mass spectrometry using an Agilent 6850A gas chromatograph coupled to a 5973N quadrupole mass selective detector (Agilent Technologies, Palo Alto, Calif., USA). Chromatographic separations were carried out an HP Plot-Q fused-silica capillary column (30 m×0.32 mm i.d.) coated with polystyrene-divinylbenzene (film thickness 0.20 μm) as stationary phase. Injection mode: splitless at a temperature of 220° C. The initial temperature of the oven was held at 50° C. for 8 min then ramped to 220° C. at a rate of 15° C./min and held for 5 min. Helium was used as carrier gas at a constant flow of 1.0 ml/min. Mass spectra were collected both in full scan and in SIM mode monitoring the ions m/z m/z 26, m/z 27 and m/z 28 (ionization energy 70 eV; ion source 280° C.; ion source vacuum 10^−5 Torr).

Assay [2] deals with Pseudomonas syringae DC3000. The experiment in a line: Pseudomonas DC3000 infection of Arabidopsis Ws-0 plants by spraying. As to conditions: transgenic Ws-0 plants vs Ws-0 wild type, 4 days post infection. In kind it is in vivo. The text has this: C) Pseudomonas DC3000 infections. (Left Panel) Symptoms disease of wild type and transformed plants after 4 days post infection. (Right panel) Growth of Pseudomonas syringae DC3000 after 4 day post infection. ***, p<0.005.
The authors therefore infected A. thaliana plants by spraying Pst DC3000 bacteria onto leaf surfaces. […] Higher resistance of eJMC plants, compared to Ws-0 wild-type plants, was found in all of three independent experiments.

Assay [3] relates to oxidative burst in tobacco leaves. The experiment in a line: Oxidative burst, luminol-dependent photon counting in agroinfiltrated tobacco leaf slices. Type of assay: cell-based, Nicotiana tabacum. The settings on record: 10 μM elfl8, after 15 min. The method, then: D) Oxidative burst in tobacco leaves transiently expressing eJMC, EFR and EWAK. Photon counting was realized using tobacco leaves slices in a solution of luminol and peroxidase, during treatment with 10 μM elfl8. eJMC- and EFR-expressing explants were used as a negative and a positive control, respectively. Experiment was repeated at least 6 times on two independent replicated.
(C) Oxidative burst in agroinfiltrated tobacco leaves expressing EWAK. Leaves expressing eJMC and EFR were used as a negative and a positive control, respectively. The burst was measured by photon counting using leaf slices incubated in a solution containing 10 μM elfl8, luminol and peroxidase. The experiment was repeated at least 6 times with two independent replicates.
(§1) 3,3′-diaminobenzidine (DAB) staining, callose deposition and gene resistance analysis were assayed as described (Galletti et al., 2008). For measuring active oxygen species released by tobacco agroinfiltrated plants after elicitor treatment, the authors used a modified luminol-dependent assay (Gomez et al., 1999). Slices, corresponding to approximately 30 mg fresh weight, were transferred to assay tubes containing 1 μM flg22 or 10 μM elfl8 in aqueous solution supplied with 40 μM luminol (SIGMA). Chemo-luminescence was measured in a liquid scintillation counter (LS-6500, Beckman) after 5 and 15 min upon addition of elicitors.

For assay [4], the system named is Agrobacterium tumefaciens GV3101. The assay is described as follows: Growth of Agrobacterium in N. tabacum tissues transiently expressing receptor proteins. Type of assay: in vivo. The settings on record: 24 h after inoculation, tobacco tissues expressing the receptor, p<0.005. The method, then:
F) Growth of Agrobacterium in N. tabacum tissues transiently expressing receptor proteins. Tobacco leaves were infiltrated with Agrobacterium expressing the indicated receptors and the number of Agrobacterium colony-forming units (c.f.u.) in the tissues was analyzed soon after infiltration (white bars) and 24 h (gray bars). EFR and eJMC were used as positive and negative controls, respectively. For each receptor, three samples were analyzed in five independent experiments. *, p<0.005.
(§2) (A) Growth of A. tumefaciens in N. tabacum tissues transiently expressing receptor proteins. Tobacco leaves were infiltrated with Agrobacterium carrying the indicated receptor constructs and the number of Agrobacterium colony-forming units (c.f.u.) in the tissues was analyzed immediately after infiltration (white bars) and after 24 h (gray bars). EFR and eJMC were used as positive and negative controls, respectively. For each receptor, three samples were analyzed in five independent experiments. Asterisks indicate statistically significant differences against control (Col-0 for WAK1 plants and Col-0 efr for WEG and EWAK plants). (B) Lesion development in Arabidopsis wild type (Col-0) and mutant Col-0 efr plants and in transgenic plants expressing WAK1, WEG and EWAK plants inoculated with B. cinerea at 48 h post-inoculation. Values are means±s.e.m. of at least 16 lesions. The same experiment was performed in a second independent transgenic line expressing WAK1 with similar results. Asterisks indicate statistically significant differences against control (Col-0 for WAK1 plants and Col-0 efr for WEG and EWAK plants).
(§3) Agrobacterium tumefaciens GV3101 strain infections was performed as described in Katagiri et al., (2002) and using a concentration of Agrobacterium corresponding at an OD600 of 1.0 in 10 mM MgCl2 and 600 μM acetosyringone. After 24 h of infiltration, serial dilution of Agrobacterium colonies were deposited on LB agar supplemented with gentamycin and rifampicin and grown for 2-3 days at 28° C. in the dark. At least 5 independent plants and 3 different leaves by plant, were used per experiment. Pectobacterium carotovorum subsp. carotovorum infections Pectobacterium carotovorum subsp. carotovorum (formely Erwinia carotovora; Gardan et al., 2003) (strain DMSZ 30169) was obtained from DSMZ GmbH (Germany). A liquid colture using 10 ml LB medium was prepared. After 16 h of growth at 28° C. on rotary shaker at 250 rpm, bacterial cells were harvested by centrifugation and the pellet was resuspended in 50 mM potassium phosphate buffer pH 7.0 corresponding to 5×10^7 CFU/ml.

In a further assay the test system is B. cinerea. The assay is described as follows: Lesion development in Arabidopsis plants inoculated with B. cinerea. Type of assay: in vivo. As to conditions: transgenic Arabidopsis vs Col-0 or Col-0 efr, 48 h post-inoculation. The procedure:
as §2

The test system of assay [5] is Pectobacterium carotovorum subsp. carotovorum. The experiment in a line: Infection assay with Pectobacterium carotovorum on transgenic Arabidopsis leaves. Type of assay: in vivo. As to conditions: transgenic Arabidopsis vs Col-0 or Col-0 efr, 24 h, 5×10^7 CFU/ml. The procedure:
Inoculum concentration was 5×10^7 CFU/ml). Values are means±SE of at least 16 lesions. Asterisks indicate statistically significant differences against control plants (Col-0 or Col-0 efr), according to Student's t test (*, p<0.0005).
as §3, with “After 16 h of growth at 28° C. on rotary shaker at 250 rpm, bacterial cells were harvested by centrifugation and the pellet was resuspended in 50 mM potassium phosphate buffer pH 7.0 corresponding to 5×10^7 CFU/ml.” left out
For infection, fully developed leaves of 4 week old Arabidopsis plants were detached and placed in 0.8% agar Petri dishes. […] Symptoms were scored measuring the area of macerated tissue after 24 hour post inoculation at 22° C. and 12 h photoperiod. Area was measured by ImageJ software. […]

Assay [6] concerns transgenic Arabidopsis leaves. The assay is described as follows: Constitutive activation of defense responses (H2O2, callose) in transgenic plants. Type of assay: cell-based, Arabidopsis thaliana. The settings on record: no elicitor. The method, then: Leaves were stained with 3,3′-diaminobenzidine (DAB) for H2O2 visualization (upper panel) and with aniline blue for callose visualization (lower panel).
as §1

B1: EWAK: chimera: EFR ectodomain fused to the TM-iJM-kinase portion of WAK1, GFP-fused (protein)
chain: RFSNETDMQALLEFKSQVSENNKREVLASWNHSSPFCNWIGVTCGRRRERVISLNLGGFKLTGVISPSIGNLSFLRLLNLADNSFGSTIPQKVGRLFRLQYLNMSYNLLEGRIPSSLSNCSRLSTVDLSSNHLGHGVPSELGSLSKLAILDLSKNNLTGNFPASLGNLTSLQKLDFAYNQMRGEIPDEVARLTQMVFFQIALNSFSGGFPPALYNISSLESLSLADNSFSGNLRADFGYLLPNLRRLLLGTNQFTGAIPKTLANISSLERFDISSNYLSGSIPLSFGKLRNLWWLGIRNNSLGNNSSSGLEFIGAVANCTQLEYLDVGYNRLGGELPASIANLSTTLTSLFLGQNLISGTIPHDIGNLVSLQELSLETNMLSGELPVSFGKLLNLQVVDLYSNAISGEIPSYFGNMTRLQKLHLNSNSFHGRIPQSLGRCRYLLDLWMDTNRLNGTIPQEILQIPSLAYIDLSNNFLTGHFPEEVGKLELLVGLGASYNKLSGKMPQAIGGCLSMEFLFMQGNSFDGAIPDISRLVSLKNVDFSNNNLSGRIPRYLASLPSLRNLNLSMNKFEGRVPTTGVFRNATAVSVFGNTNICGGVREMQLKPCIVQASPRKRKPLSVRKKVVSGWTTILLVTTIGFLVILLGVACIQQRMKHLKDTKLREQFFEQNGGGMLTQRLSGAGPSNVDVKIFTEDGMKKATNGYAESRILGQGGQGTVYKGILPDNSIVAIKKARLGDSSQVEQFINEVLVLSQINHRNVVKLLGCCLETEVPLLVYEFITNGTLFDHLHGSMIDSSLTWEHRLKIAIEVAGTLAYLHSSASIPIIHRDIKTANILLDVNLTAKVADFGASRLIPMDKEELETMVQGTLGYLDPEYYNTGLLNEKSDVYSFGVVLMELLSGQKALCFKRPQSSKHLVSYFATATKENRLDEIIGGEVMNEDNLKEIQEAARIAAECTRLMGEERPRMKEVAAKLEALRVEKTKHKWSDQYPEENEHLIGGHILSAQGETSSSIGYDSIKNVAILDIETGR
modifications: left off: large carriers
On to B1, for which, in assay [1], the “ethylene accumulation upon stimulation with elfl8” value was “did not”. In addition, the “development of disease symptoms / susceptibility to Pst DC3000” value in assay [2] is listed as “confers resistance”. Also, in assay [3], the “oxidative burst upon treatment with elfl8” value was “produced an oxidative burst; also recorded: robust oxidative burst”. Moreover, the “decrease in the number of living Agrobacterium cells” value in assay [4] came out at 30%. For the same molecule, in the assay on B. cinerea, the “resistance to B. cinerea infection” value is recorded as “not”. In addition, the “resistance to Pectobacterium carotovorum subsp. carotovorum” value in assay [5] is given as “increased resistance; also recorded: confers resistance”. The “constitutive activation of defense responses (H2O2 levels, callose deposits)” value in assay [6] is listed as “do not show constitutive activation of defense responses”.
